Test results published in US20150147342A1 (published 2015).
Numbering of substitutions follows the chain as printed.

B1: H1M724N (antibody, V domains shown)
VH: QVQLVESGGGVVQPGRSLRLSCAASGFTLSNYGMHWVRQAPGKGLEWVAVIWHDGSNTYYADSVKGRFTISRDNSKNTLYLQMNSLRAEDTAVYYCTREGLDFWSGYYPNWFDPWGQGTLVTVSS
VL: DIQMTQSPSSLSASVGDRVTITCRASQGIRNDLGWYQQKPGKAPKRLIYAASNLQGGVPSRFSGSGSGTEFTLTISSLQPEDFAAYYCLQHNIYPLTFGGGTKVEIK
B2: H1M732N (antibody, V domains shown)
VH: EVQLVESGGGLVRPGGSLRLSCAASGFTFTNAWMSWVRQAPGKGLEWIGQIKSKTDGGTIDYAAPVKGRFTVSRDDSENTLFLQMNSLKTEDTAVYYCAGNWNYVDFDYWGQGTLVTVSS
VL: B1 VL with G28D, N53S, A85T, I93S, L96F, G100P, E105D
B3: H2M743N (antibody, V domains shown)
VH: EVQLLESGGGLVQPGGSLRLSCAASGFTFRKYAMSWVRQAPGKGLEWVSVISVSGGNTYYADSVKGRFTISRDNSKNTLYLQLNSLRAEDTAVYYCAKDLTDIVLMVYVDYWGQGTLVTVSS
VL: DIQMTQSPSSVSASVGDRVTITCRASQDIDRWLAWYQQKPGKAPKLLIYAASSLQSGVPSRFSGSGSGTDFTLTISTLQPEDFATYYCQQANSLPFTFGGGTKVEIK
B4: H1M728N (antibody, V domains shown)
VH: EVQLVESGGDLVQPGGSLRLSCTASGFTFSKYWMTWVRQAPGRGLEWVANIKEDGNEKYFLDSVKGRFTISRDNAKDLLFLQMNSLRGEDTAVYYCVRDRGIEVAGPFDYWGQGTLVTVSS
VL: DIQMTQSPSTLSASVGDRVTVTCRASQTIINWLAWYQQKPGKAPKLLISKASSLESGVPSRFSGSGSGTEFTLTISSLQPDDFATYYCQQYNRYWTFGQGTMVEIK
B5: H2M742N (antibody, V domains shown)
VH: DVQLLESGGDLVQPGGSLRLSCEASGFTFRNYVMIWVRQAPGKGLEWVSGISNSGGTTHYTDSVKGRFTISRDNSKNTLYLQINSLRAEDTAVYYCAKGYLDTSLIEGNWFDPWGQGTLVTVSS
VL: NIVMTQSPLSLPVTPGEPASISCRSSQSLLHSNGFNYLNWFLQKPGQSPQLLIYLGSNRASGVPDKFSGSGSGTDFTLNINRVEAEDVGIYFCMQTLQTPLTFGGGTKVEIK
B6: H2M750N (antibody, V domains shown)
VH: QVKLVESGGGVVQPGRSLRVSCAASGFTFSSYGMHWVRQAPGKGLEWLAIIWYDGDNKYYSDSVKGRFTISRDNSKNTLYLQMNSLRAEDTAEYYCVRDASIASRFLDYWGQGTLVTVSS
VL: DIQMTQSPSSLSASIGDRVTITCRATQDINNYLAWFQQKPGKAPKSLIYATSNLQSGVPSKFSGSGSGTDYTLTISSLQPEDFSTYYCQQYHSYPLTFGGGTKVEIK
B7: H2M730N (antibody, V domains shown)
VH: EVQLVESGGGLVQPGGSLRLSCAASGFAFRSYWMTWVRQAPGKGLEWVANIQQDGNDKYYVDSVKGRFTISRDNAKNSLYLQMNSLRAEDTAVYYCARDTGIAEAGPFDYWGQGTLVTVSS
VL: B4 VL with T20S, V21I, N31S, K45R, S49Y, S76N, M102K
B8: H1H685P (antibody, V domains shown)
VH: EVQLVESGGGLVQPGGSLRLSCAASGFTFSSYDIHWVRQATGKGLEWVSAIGPAGDTYYPGSVKGRFTISRENAKNSLYLQMNSLRAGDTAVYYCARGLITFGGLIAPFDYWGQGTLVTVSS
VL: EIVLTQSPGTLSLSPGERATLSCRASQSVSSTYLAWYQQKPGQAPRLLIYGASSRATGIPDRFSGSGSGTDFTLTISRLEPEDFAVYYCQHYDNSQTFGQGTKVEIK
notes: Fully human antibody, human IgG1; also called mAb1
B9: H1H696P (antibody, V domains shown)
VH: QVQLVESGGGLVKPGGSLRLSCAASGFTFSDYYMSWIRQAPGKGLEWVSYISYTGRTIYYADSVKGRFTISRDNAKNSLYLQMNSLRAEDTAVYYCARDTDYGDFFDYWGQGTLVTVSS
VL: B6 VL with I15V, T26S, D28G, N30S, T51A, N53S, Y71F, S84A, H92N
B10: H1H695P (antibody, V domains shown)
VH: QVQLVESGGGVVQPGRSLRLSCAASGFTFSSYGMHWVRQAPGKGLEWVAVMWYDETNKYYADSVKGRFTISRDNSKNTLYLQMNSLRAEDTAVYYCARYSGYEDYYHGMDVWGQGTTVTVS
VL: EIVMTQSPATPSVSPGERATLSCRASQSISSNLAWYQQKPGQAPRLLIYGASTRATGIPARFSGSGSGTEFTLTISSLQSEDFAVYYCQHYNNWITFGQGTRLEIK

What follows are binders tested against T1, Dimeric fibrinogen-like domain of mouse (Mus musculus) Ang-2 conjugated to human IgG1 (mouse (Mus musculus)) (assay: SPR, antibody captured, room temp).
T1 construct: also called Dimeric Mouse Ang-2FD; Mouse Ang-2FD-hFc
Description: (§1) Antibody was captured on a goat anti-mouse IgG polyclonal antibody surface, a goat anti-human κ polyclonal antibody (Southern Biotech, Birmingham, Ala.) surface or a goat anti-human IgG polyclonal antibody (Jackson Immuno Research Lab, West Grove, Pa.) surface created through direct amine coupling to a BIACORE™ CM5 sensor chip to form a captured antibody surface. […] Antigen-antibody binding and dissociation were monitored in real time at room temperature. Kinetic analysis was performed to calculate KD and half-life of antigen/antibody complex dissociation.

| Binder | Kd [nM] | T1/2 [min] |
| --- | --- | --- |
| B1 | 0.694 | 16 |
| B2 | 1.7 | 21.4 |
| B3 | 0.882 | 195 |
| B4 | 5.65 | 9.9 |
| B5 | 0.61 | 30.8 |

Each binder was assayed against T2, Dimeric fibrinogen-like domain of human Ang-2 conjugated to human IgG1 (human) (assay: SPR, antibody captured, room temp).
T2 construct: also called Dimeric Human Ang-2FD; Human Ang-2FD-hFc
Description: as §1

| Binder | Kd [nM] | T1/2 [min] |
| --- | --- | --- |
| B6 | 0.362 | 32.2 |
| B1 | 0.179 | 42.7 |
| B2 | 0.484 | 35.5 |
| B3 | 0.154 | 167 |
| B4 | 0.137 | 58.4 |
| B7 | 0.21 | 47 |
| B5 | 0.295 | 38 |

These binders were tested against T3, Dimeric fibrinogen-like domain of monkey (Macca fascicularis) Ang-2 conjugated to human IgG1 (monkey (Macca fascicularis)) (assay: SPR, antibody captured, room temp).
T3 construct: also called Dimeric Monkey Ang-2FD; Monkey Ang-2FD-hFc
Description: as §1

| Binder | Kd [nM] | T1/2 [min] |
| --- | --- | --- |
| B6 | 1.47 | 23 |
| B1 | 0.73 | 25.7 |
| B2 | 7.33 | 24.1 |
| B3 | 0.234 | 169 |
| B4 | 1.58 | 69.5 |
| B7 | 0.842 | 36.6 |
| B5 | 6.17 | 28.5 |

These binders were tested against T4, Mouse Ang-2FD-hFc (mouse (Mus musculus)) (assay: ELISA, 16.67 nM antibody + 8 nM mouse Ang-2FD-hFc, on coated hTie-2-mFc (competitor)).
T4 construct: Order of the pieces follows the name; also called Dimeric Mouse Ang-2FD
Description: (§2) Tie-2 is a natural receptor for Ang-2. Anti-Ang-2 antibodies were tested for their ability to block Ang-2 binding to human Tie-2 (hTie-2). hTie-2-mFc (a chimeric construct consisting of human Tie-2 conjugated to mouse IgG; SEQ ID NO:525) was coated onto 96-well plates at a concentration of 2 μg/ml and incubated overnight followed by washing four times in wash buffer (PBS with 0.05% Tween-20). The plate was then blocked with PBS (Irvine Scientific, Santa Ana, Calif.) containing 0.5% BSA (Sigma-Aldrich Corp., St. Louis, Mo.) for one hour at room temperature. In a separate plate, purified anti-Ang-2 antibodies, at a starting concentration of 50 nM, were serially diluted by a factor of three across the plate. […] The antibody/Ang-2FD-Fc mixture was then added to the plate containing hTie-2-mFc and incubated for one hour at room temperature.

| Binder | Percent Blocking of Ang-2FD Binding to Tie-2 [%] |
| --- | --- |
| B8 | 97.1 |

Each binder was assayed against T1, Dimeric fibrinogen-like domain of mouse … (assay: blocking ELISA, 16.67 nM antibody, coated hTie-2-mFc).
Description: as §2

| Binder | Percent Blocking of Ang-2FD Binding to Tie-2 [%] |
| --- | --- |
| B6 | 53.7 |
| B1 | 96.6 |
| B2 | 90.9 |
| B3 | 98.4 |
| B4 | 83.9 |
| B7 | 55 |
| B5 | 98.6 |

These binders were tested against T2, Dimeric fibrinogen-like domain of human … in the same assay as above.
Description: as §2

| Binder | Percent Blocking of Ang-2FD Binding to Tie-2 [%] |
| --- | --- |
| B6 | 99.4 |
| B1 | 99.5 |
| B2 | 97.7 |
| B3 | 99.6 |
| B4 | 98.5 |
| B7 | 98.9 |
| B5 | 99.6 |

Each binder was assayed against T3, Dimeric fibrinogen-like domain of … in the same assay as above.
Description: as §2

| Binder | Percent Blocking of Ang-2FD Binding to Tie-2 [%] |
| --- | --- |
| B6 | 97.4 |
| B1 | 95.2 |
| B2 | 95.8 |
| B3 | 95.1 |
| B4 | 97.1 |
| B7 | 97.3 |
| B5 | 94.1 |

Each binder was assayed against T1, Dimeric fibrinogen-like domain of mouse … (assay: SPR, hIgG1 antibody captured, room temp).
Description: as §1
(§3) The above experiment was repeated using selected purified anti-Ang-2 antibodies cloned onto human IgG1.

| Binder | Kd [nM] | T1/2 [min] |
| --- | --- | --- |
| B9 | 0.402 | 37.6 |
| B10 | 0.347 | 124 |

Each binder was assayed against T2, Dimeric fibrinogen-like domain of human … (assay: SPR, hIgG1 antibody captured, room temp).
Description: as §1, §3

| Binder | Kd [nM] | T1/2 [min] |
| --- | --- | --- |
| B9 | 0.289 | 38.8 |
| B10 | 0.245 | 147 |

These binders were tested against T3, Dimeric fibrinogen-like domain of … (assay: SPR, hIgG1 antibody captured, room temp).
Description: as §1, §3

| Binder | Kd [nM] | T1/2 [min] |
| --- | --- | --- |
| B9 | 0.354 | 36.6 |
| B10 | 0.44 | 84.1 |
